Test results taken from the supplement of paper PMC9112550, “Optimization of the antimicrobial peptide Bac7 by deep mutational scanning” (BMC Biology, 2022).

system: Escherichia coli TOP10; test: shrunken log2 fold change of peptide-encoding DNA abundance (4.5 h post-induction vs induction); higher = less antimicrobial activity (less host growth inhibition); conditions: time post-induction: 4.5 h; library: site-saturation at positions 5, 18, 19, 20
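Note: peptides expressed intracellularly from a pBAD plasmid library in pooled LB shake-flask culture, induced with 0.3% L-arabinose, DNA abundance read by NGS, three biological replicates, DESeq2 with apeglm shrinkage.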

Sequence	shrunken log2 fold change
RRIRARPPRLPRPRPRPVLKPRP	0.22
RRIRQRPPRLPRPRPRPVAIPRP	-0.367
RRIRDRPPRLPRPRPRPLMFPRP	-0.188
RRIRHRPPRLPRPRPRPQNRPRP	-0.0146
RRIRWRPPRLPRPRPRPDLIPRP	0.0332
RRIRPRPPRLPRPRPRPCAWPRP	0.0868
RRIRRRPPRLPRPRPRPNIQPRP	0.0304
RRIRPRPPRLPRPRPRPGFRPRP	0.138
RRIRSRPPRLPRPRPRPIRWPRP	0.0723
RRIRIRPPRLPRPRPRPGGLPRP	-0.16
RRIRPRPPRLPRPRPRPYDDPRP	-0.0211
RRIRGRPPRLPRPRPRPFMTPRP	0.837
RRIRTRPPRLPRPRPRPYQHPRP	-0.376
RRIRSRPPRLPRPRPRPNATPRP	0.551
RRIRDRPPRLPRPRPRPAHWPRP	0.404
RRIRPRPPRLPRPRPRPYYLPRP	-0.745
RRIRKRPPRLPRPRPRPDTLPRP	0.0227
RRIRIRPPRLPRPRPRPCRYPRP	-0.317
RRIRNRPPRLPRPRPRPPWGPRP	0.254
RRIRKRPPRLPRPRPRPCLPPRP	0.0253
RRIRQRPPRLPRPRPRPNIQPRP	-0.228
RRIRFRPPRLPRPRPRPYCQPRP	-0.131
RRIRRRPPRLPRPRPRPRHYPRP	0.279
RRIRMRPPRLPRPRPRPCQGPRP	-0.168
RRIRQRPPRLPRPRPRPWCRPRP	-0.325

Sequence	shrunken log2 fold change
RRIRMRPPRLPRPRPRPMTNPRP	0.165
RRIRCRPPRLPRPRPRPAMYPRP	-0.265
RRIRVRPPRLPRPRPRPPIIPRP	-0.222
RRIRFRPPRLPRPRPRPANPPRP	-0.156
RRIRDRPPRLPRPRPRPAEQPRP	0.0426
RRIRGRPPRLPRPRPRPFEIPRP	-0.017
RRIRPRPPRLPRPRPRPCSNPRP	0.137
RRIRPRPPRLPRPRPRPHYNPRP	-0.769
RRIRLRPPRLPRPRPRPPKDPRP	0.137
RRIRTRPPRLPRPRPRPKTCPRP	0.012
RRIRCRPPRLPRPRPRPPYWPRP	0.279
RRIRNRPPRLPRPRPRPVGKPRP	0.028
RRIRARPPRLPRPRPRPWMTPRP	-0.141
RRIRSRPPRLPRPRPRPTVWPRP	0.185
RRIRGRPPRLPRPRPRPNPNPRP	0.215
RRIRNRPPRLPRPRPRPTTDPRP	-0.199
RRIRIRPPRLPRPRPRPDKWPRP	-0.318
RRIRLRPPRLPRPRPRPKYLPRP	-0.55
RRIRCRPPRLPRPRPRPEAHPRP	0.38
RRIRWRPPRLPRPRPRPVSWPRP	0.782
RRIRHRPPRLPRPRPRPHIKPRP	-0.83
RRIRPRPPRLPRPRPRPMMCPRP	-0.147
RRIRHRPPRLPRPRPRPSIPPRP	-0.868
RRIRNRPPRLPRPRPRPVPYPRP	0.0481
RRIRCRPPRLPRPRPRPHVKPRP	-0.284

Sequence	shrunken log2 fold change
RRIRGRPPRLPRPRPRPLQEPRP	1.56
RRIRRRPPRLPRPRPRPTWMPRP	0.174
RRIRVRPPRLPRPRPRPEASPRP	0.0108
RRIRNRPPRLPRPRPRPIPLPRP	0.0142
RRIRARPPRLPRPRPRPIIYPRP	-0.249
RRIRMRPPRLPRPRPRPEPFPRP	0.427
RRIRPRPPRLPRPRPRPSNQPRP	-0.45
RRIRYRPPRLPRPRPRPEFQPRP	-0.47
RRIRSRPPRLPRPRPRPCVPPRP	-0.0369
RRIRHRPPRLPRPRPRPSNQPRP	-0.616
RRIRGRPPRLPRPRPRPNMRPRP	1.08
RRIRCRPPRLPRPRPRPKIAPRP	0.0102
RRIRERPPRLPRPRPRPIGLPRP	-0.293
RRIRDRPPRLPRPRPRPILKPRP	0.0239
RRIRNRPPRLPRPRPRPIYAPRP	-0.71
RRIRFRPPRLPRPRPRPRSKPRP	0.0303
RRIRHRPPRLPRPRPRPAFCPRP	0.0444
RRIRPRPPRLPRPRPRPTEYPRP	-0.264
RRIRMRPPRLPRPRPRPMWYPRP	-0.288
RRIRERPPRLPRPRPRPEHDPRP	-0.0107
RRIRSRPPRLPRPRPRPNRQPRP	-0.403
RRIRHRPPRLPRPRPRPRYMPRP	-0.559
RRIRERPPRLPRPRPRPAIPPRP	-0.737
RRIRFRPPRLPRPRPRPLFQPRP	-0.446
RRIRDRPPRLPRPRPRPFAQPRP	0.0821

Sequence	shrunken log2 fold change
RRIRLRPPRLPRPRPRPSLHPRP	-0.471
RRIRLRPPRLPRPRPRPGCMPRP	0.646
RRIRVRPPRLPRPRPRPEYFPRP	-0.285
RRIRFRPPRLPRPRPRPPCAPRP	0.576
RRIRWRPPRLPRPRPRPFNAPRP	-0.342
RRIRSRPPRLPRPRPRPKMPPRP	0.0106
RRIRWRPPRLPRPRPRPMYSPRP	-0.612
RRIRRRPPRLPRPRPRPVEAPRP	0.118
RRIRSRPPRLPRPRPRPKCSPRP	-0.122
RRIRIRPPRLPRPRPRPRCDPRP	-0.0753
RRIRWRPPRLPRPRPRPFMTPRP	0.183
RRIRERPPRLPRPRPRPNDFPRP	-0.0161
RRIRWRPPRLPRPRPRPCNSPRP	-0.281
RRIRTRPPRLPRPRPRPMMSPRP	-0.282
RRIRIRPPRLPRPRPRPFPEPRP	-0.45
RRIRNRPPRLPRPRPRPPPEPRP	1.1
RRIRMRPPRLPRPRPRPATLPRP	0.132
RRIRWRPPRLPRPRPRPAREPRP	0.138
RRIRNRPPRLPRPRPRPLDKPRP	-0.186
RRIRNRPPRLPRPRPRPYKHPRP	-0.819
RRIRARPPRLPRPRPRPVENPRP	0.25
RRIRGRPPRLPRPRPRPHTAPRP	0.149
RRIRSRPPRLPRPRPRPGEDPRP	0.106
RRIRNRPPRLPRPRPRPSDLPRP	-0.256
RRIRLRPPRLPRPRPRPPHHPRP	0.253

Sequence	shrunken log2 fold change
RRIRIRPPRLPRPRPRPDRHPRP	-0.504
RRIRERPPRLPRPRPRPALYPRP	-0.129
RRIRERPPRLPRPRPRPYEHPRP	-0.278
RRIRQRPPRLPRPRPRPSANPRP	0.0611
RRIRPRPPRLPRPRPRPETKPRP	0.00908
RRIRDRPPRLPRPRPRPKKYPRP	-0.239
RRIRFRPPRLPRPRPRPMQQPRP	-0.0268
RRIRPRPPRLPRPRPRPVNQPRP	0.223
RRIRIRPPRLPRPRPRPRRFPRP	-0.00443
RRIRHRPPRLPRPRPRPQQYPRP	-0.706
RRIRTRPPRLPRPRPRPMKAPRP	0.0679
RRIRERPPRLPRPRPRPRVNPRP	-0.157
RRIRNRPPRLPRPRPRPCHWPRP	0.065
RRIRWRPPRLPRPRPRPPMLPRP	0.0923
RRIRDRPPRLPRPRPRPGPAPRP	0.608
RRIRRRPPRLPRPRPRPDLYPRP	0.0296
RRIRIRPPRLPRPRPRPNKDPRP	-0.818
RRIRDRPPRLPRPRPRPPCNPRP	-0.424
RRIRYRPPRLPRPRPRPIASPRP	-0.196
RRIRPRPPRLPRPRPRPKSFPRP	-0.0474
RRIRKRPPRLPRPRPRPGLTPRP	1.08
RRIRKRPPRLPRPRPRPWVQPRP	0.0916
RRIRTRPPRLPRPRPRPKKNPRP	0.409
RRIRARPPRLPRPRPRPKWCPRP	0.321
RRIRWRPPRLPRPRPRPEAVPRP	1.05

Sequence	shrunken log2 fold change
RRIRLRPPRLPRPRPRPTEKPRP	-0.0343
RRIRERPPRLPRPRPRPYEKPRP	-0.0219
RRIRDRPPRLPRPRPRPMETPRP	-0.00149
RRIRMRPPRLPRPRPRPRKTPRP	0.514
RRIRQRPPRLPRPRPRPWHIPRP	-0.00133
RRIRGRPPRLPRPRPRPRTSPRP	0.763
RRIRFRPPRLPRPRPRPVRPPRP	1.18
RRIRYRPPRLPRPRPRPIQDPRP	-0.00166
RRIRKRPPRLPRPRPRPMICPRP	0.0303
RRIRYRPPRLPRPRPRPLYEPRP	-0.562
RRIRLRPPRLPRPRPRPLIHPRP	-0.542
RRIRIRPPRLPRPRPRPKRKPRP	-0.105
RRIRMRPPRLPRPRPRPWCYPRP	-0.162
RRIRSRPPRLPRPRPRPNLLPRP	-0.0918
RRIRSRPPRLPRPRPRPYKKPRP	-0.0605
RRIRARPPRLPRPRPRPGIDPRP	0.652
RRIRDRPPRLPRPRPRPAKTPRP	0.152
RRIRNRPPRLPRPRPRPHKEPRP	0.0155
RRIRTRPPRLPRPRPRPTRLPRP	0.126
RRIRKRPPRLPRPRPRPQMRPRP	0.292
RRIRIRPPRLPRPRPRPGDMPRP	-0.763
RRIRNRPPRLPRPRPRPYFEPRP	-0.797
RRIRSRPPRLPRPRPRPWRQPRP	0.11
RRIRTRPPRLPRPRPRPTYFPRP	-0.313
RRIRDRPPRLPRPRPRPIVMPRP	-0.0257
